Laboratory results from publication PMC11534217, “Direct activation of HSF1 by macromolecular crowding and misfolded proteins”.
Values belong to the binder of their own block, whether it stands above or below them.

Columns and labels:
[1] = molecular target: T1, Heat shock factor protein 1 (HSF1), purified recombinant (human), Q00613; assay: SEC + native gel or EMSA; trimer fraction of purified HSF1 from the same SEC, then Blue native PAGE and western blot; conditions: remark: other sources report otherwise
T1 chain: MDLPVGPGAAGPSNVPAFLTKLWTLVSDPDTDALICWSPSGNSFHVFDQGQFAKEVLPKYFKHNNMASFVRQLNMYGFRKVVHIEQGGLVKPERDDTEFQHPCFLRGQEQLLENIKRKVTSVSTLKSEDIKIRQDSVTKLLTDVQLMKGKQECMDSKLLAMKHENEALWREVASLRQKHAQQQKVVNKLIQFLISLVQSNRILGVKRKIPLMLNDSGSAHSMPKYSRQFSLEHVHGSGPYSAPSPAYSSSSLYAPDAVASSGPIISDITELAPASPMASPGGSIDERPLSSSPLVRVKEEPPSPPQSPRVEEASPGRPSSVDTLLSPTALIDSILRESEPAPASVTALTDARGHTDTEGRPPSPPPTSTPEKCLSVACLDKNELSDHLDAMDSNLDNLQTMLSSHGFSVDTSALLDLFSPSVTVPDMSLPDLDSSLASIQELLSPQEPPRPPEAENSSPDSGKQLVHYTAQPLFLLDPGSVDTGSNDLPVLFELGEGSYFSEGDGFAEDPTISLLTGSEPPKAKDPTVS

[2] = molecular target: T1, Heat shock factor protein 1 (HSF1), …; assay: native gel or EMSA; Blue native PAGE and western blot of purified HSF1 monomer (5 μM) after mild heat (38°C, 0-600 s; or 37°C, 5 min) with or without BSA as crowder (1-50 mg/ml); conditions: remark: other sources report otherwise
[3] = molecular target: T2, GFP-HSF1 (human), Q00613; assay: native gel or EMSA; high resolution clear native electrophoresis (HR CNE) of lysates of H1299 cells with fluorescent HSF1 fusion, fluorescence scan; cells treated with sorbitol, 42°C heat shock, bortezomib or AUY-922; conditions: remark: other sources report otherwise
T2 chain: T1 chain

[4] = molecular target: T3, mCherry-HSF1 (human), Q00613; assay: as above; conditions: remark: other sources report otherwise
T3 chain: T1 chain

[5] = molecular target: T4, HSF1, endogenous in H1299 cells (human (endogenous in H1299)), Q00613; assay: cross-linking; 2 mM DSBU added to the lysate of H1299 cells for 30 minutes, SDS-PAGE, blot with anti-HSF1 c-5; cells treated with AUY-922 (0-200 nM, 2 h) after mTOR inhibitors BEZ-235 or rapamycin (100 nM, 8 h); conditions: remark: other sources report otherwise
T4 chain: T1 chain

[6] = molecular target: HSF1 monomer (SEC-purified) (human (Homo sapiens), UniProt Q00613 1-529); assay: fluorescence polarization; after heat shock (+HS); binding enhanced; FP: 30 nM DNA, 150 mM NaCl, 50 mM HEPES pH 7.2, 1 mM DTT, 0.05% Tween-20, 25 C; EMSA: 200 nM HSF1, 100 nM DNA, 25 mM HEPES pH 7.4, 150 mM NaCl, 10% glycerol, 3; conditions: protein: recombinant; tags: N-terminal His6-TEV, cleaved by TEV before assay; chain copies: 3; label: 5' FAM on printed strand; described as double-stranded

B2: GFP-HSF1, Q00613 1-529 (natural protein)
chain: T1 chain
stoichiometry N [3]: 3

B5: FAM-HSE (dsDNA)
DNA 1: CCCCTTCCCGAATATTCCCCC
DNA 2: GGGGGAATATTCGGGAAGGGG
binding result [6]: binds

The next lines start with the values.

stoichiometry N [1]: 3
stoichiometry N [2]: 3
B1: Heat shock factor protein 1 (HSF1), purified recombinant, Q00613-1 1-529 (natural protein)
chain: T1 chain

stoichiometry N [4]: 3
B3: mCherry-HSF1, Q00613-1 1-529 (natural protein)
chain: T1 chain

stoichiometry N [5]: 3
B4: HSF1, endogenous in H1299 cells, Q00613 1-529 (natural protein)
chain: T1 chain
